Patent US20250313631A1 (HUMMINGBIRD BIOSCIENCE PTE, published 2025)

How the values were obtained:
[1] = biological target: T1, recombinant human VISTA (His-tagged) (human, UniProt Q9H7M9 33-194); assay: ELISA, plate coated with human VISTA
T1 construct: bought soluble protein (Sino Biological); also called hVISTA; human VISTA polypeptide

[2] = biological target: T1, recombinant human VISTA (His-tagged); assay: ELISA on coated human VISTA, antibody diluted in buffer of pH 7
[3] = biological target: T1, recombinant human VISTA (His-tagged); assay: antigen-binding ELISA; HMBD-002 10 mg/mL in F5, day 0
[4] = biological target: T1, recombinant human VISTA (His-tagged); assay: antigen-binding ELISA; reference standard run with the day 20 samples
human B7H4 = biological target: T2, human B7H4 (human, UniProt Q7Z7D3 25-258, limits assumed); assay: ELISA, plate coated with human B7H4, antibody titrated
T2 construct: also called VTCN1
T2 sequence (looked up): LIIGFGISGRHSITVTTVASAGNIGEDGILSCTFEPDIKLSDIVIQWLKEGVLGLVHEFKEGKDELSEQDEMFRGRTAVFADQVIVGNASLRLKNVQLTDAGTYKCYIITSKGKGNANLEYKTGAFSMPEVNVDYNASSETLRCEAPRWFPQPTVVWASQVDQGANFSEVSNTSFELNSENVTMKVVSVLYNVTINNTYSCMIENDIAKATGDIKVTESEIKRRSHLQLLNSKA

VISTA-Fc = biological target: T3, VISTA-Fc (UniProt Q9H7M9 33-194); assay: competition ELISA: VISTA-Fc coated, VSIG3-His 0.3 ug/ml as the blocked ligand, anti-His-HRP detection
T3 construct: also called VISTA-Ig; not shown: Fc/Ig part not described

B1: anti-VISTA clone V4-C26 IgG1 (antibody)
heavy: not shown
light: EIVLTQSPATLSLSPGERATLSCRASSSVGYIHWYQQKPGQAPRPIIYTTSNRATGIPARFSGSGSGTDNTLTISSLEPEDSAVYYCQQWSSYPPITFGGGTKLEVKRTVAAPSVFIFPPSDEQLKSGTASVVCLLNNFYPREAKVQWKVDNALQSGNSQESVTEQDSKDSTYSLSSTLTLSKADYEKHKVYACEVTHQGLSSPVTKSFNRGEC
[1]
  EC50 (read off the curve): ~10 pM

B2: V4-C26 hIgG4 (antibody)
heavy: not shown
light: B1 light
notes: human IgG4 (S228P)/kappa format; also called HMBD-002; HMBD-002-V4C26
[2]
  EC50: 34.3 pM
[3]
  EC50: 31 pM
[4]
  EC50: 35.5 pM
Human B7H4
  binding result: no binding (tested: about 3e-8 M)

B3: anti-VISTA clone 4M2-C12 IgG1 (antibody)
heavy: not shown
light: DIVITQTPAILSTSPGEKVTMTCRASSSVGYIHWYQQKPGSSPKPWIYATSNLASGVPARFSGSGSGTSNSLTITRVEAEDAATYYCQQWSSYPPITFGGGTKLEVKRTVAAPSVFIFPPSDEQLKSGTASVVCLLNNFYPREAKVQWKVDNALQSGNSQESVTEQDSKDSTYSLSSTLTLSKADYEKHKVYACEVTHQGLSSPVTKSFNRGEC
notes: mouse variable regions on human IgG1/kappa constant regions; also called V4; V4pr
VISTA-Fc
  IC50 (read off the curve): ~4000 pM
